# Data reported in article PMC5947639.
# Assays:
# [1] = biological target: MafR_(V583), untagged MafR protein from Enterococcus faecalis V583 (Enterococcus faecalis V583); assay: AUC
# [2] = biological target: MafR_(V583), untagged MafR protein from Enterococcus faecalis V583 (Enterococcus faecalis V583); assay: SEC
substance,measurement,setting,value
"MafR_(V583), untagged MafR protein from Enterococcus faecalis V583 (natural protein)",stoichiometry N,[1],2
same,stoichiometry N,[2],2
